From PMC8617076, “Structure of HIV-1 Vpr in complex with the human nucleotide excision repair protein hHR23A” (Nature Communications, 2021)
Residue numbers refer to the chain shown, from its start. Names and notes keep the numbering of the source.

What was measured:
Conditions in all cases: both partners purified
Trx-hHR23AFL = molecular target: T1, Trx-hHR23AFL (human, UniProt P54725 1-363); test: ITC; NusA–Vpr1–79 (8.5 µM) in the cell, Trx-hHR23AFL or DCAF1 1045–1396/DDB1 (100 μM) added in aliquots; 18 °C; 20 mM sodium phosphate pH 7.4, 100 mM NaCl
T1 construct: human hHR23A, full length (FL); source: E. coli Rosetta 2 (DE3) or Rosetta 2 (DE3) pLysS, purified (HisTrap, gel filtration)
T1 sequence (looked up): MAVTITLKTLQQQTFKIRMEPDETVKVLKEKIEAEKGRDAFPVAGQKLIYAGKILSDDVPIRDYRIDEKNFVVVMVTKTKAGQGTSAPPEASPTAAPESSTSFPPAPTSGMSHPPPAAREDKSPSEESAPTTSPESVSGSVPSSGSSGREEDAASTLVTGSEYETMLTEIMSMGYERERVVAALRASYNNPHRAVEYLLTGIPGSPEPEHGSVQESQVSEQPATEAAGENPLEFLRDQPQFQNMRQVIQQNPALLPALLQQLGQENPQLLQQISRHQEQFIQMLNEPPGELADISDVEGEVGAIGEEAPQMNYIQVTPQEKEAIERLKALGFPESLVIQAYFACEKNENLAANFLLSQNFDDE

DCAF1_(1045–1396)/DDB1 = molecular target: T2, DCAF1_(1045–1396)/DDB1 (UniProt Q9Y4B6 1045-1396; Q16531 1-1140); test: as above
T2 construct: DCAF1, residues 1045-1396; DDB1

[1] = molecular target: T3, GST-hHR23A, residues 1–363 (WT hHR23AFL) (human, UniProt P54725 1-363); test: pull-down; 1000 pmol GST-tagged hHR23A/B and 1000 pmol NusA–VprFL in 500 μl PBS, 30 min 4 °C; TEV cleavage overnight at 4 °C; Glutathion-Sepharose 4B beads; anti-His immunoblot
T3 construct: human hHR23A, full length, residues 1–363; also called GST-tagged WT hHR23A; source: recombinant
T3 sequence (looked up): T1 sequence (looked up)

[2] = molecular target: T4, GST-hHR23B, residues 1–409 (human, UniProt P54727 1-409); test: as above
T4 construct: human hHR23B, residues 1–409; source: recombinant
T4 sequence (looked up): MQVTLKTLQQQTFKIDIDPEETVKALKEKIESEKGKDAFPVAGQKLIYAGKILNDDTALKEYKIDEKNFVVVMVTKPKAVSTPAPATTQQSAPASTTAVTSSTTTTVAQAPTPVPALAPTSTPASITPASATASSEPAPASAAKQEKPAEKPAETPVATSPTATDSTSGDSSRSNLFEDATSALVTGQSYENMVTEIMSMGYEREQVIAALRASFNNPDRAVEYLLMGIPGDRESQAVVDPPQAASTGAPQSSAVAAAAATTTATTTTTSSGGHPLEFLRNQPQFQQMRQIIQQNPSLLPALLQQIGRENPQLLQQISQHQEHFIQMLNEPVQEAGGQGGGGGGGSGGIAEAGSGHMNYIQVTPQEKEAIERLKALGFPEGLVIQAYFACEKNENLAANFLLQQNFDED

[3] = molecular target: T5, GST-hHR23B, residues 262–409 (human, UniProt P54727 262-409); test: as above
T5 construct: human hHR23B, residues 262–409; also called C-terminal half of hHR23B; source: recombinant
T5 sequence (looked up): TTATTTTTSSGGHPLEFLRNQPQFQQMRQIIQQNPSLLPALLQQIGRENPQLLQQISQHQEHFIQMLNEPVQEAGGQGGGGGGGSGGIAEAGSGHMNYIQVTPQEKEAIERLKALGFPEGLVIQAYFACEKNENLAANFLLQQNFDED

T2 sequence (Q9Y4B6 1045-1396, chain 1 of 2): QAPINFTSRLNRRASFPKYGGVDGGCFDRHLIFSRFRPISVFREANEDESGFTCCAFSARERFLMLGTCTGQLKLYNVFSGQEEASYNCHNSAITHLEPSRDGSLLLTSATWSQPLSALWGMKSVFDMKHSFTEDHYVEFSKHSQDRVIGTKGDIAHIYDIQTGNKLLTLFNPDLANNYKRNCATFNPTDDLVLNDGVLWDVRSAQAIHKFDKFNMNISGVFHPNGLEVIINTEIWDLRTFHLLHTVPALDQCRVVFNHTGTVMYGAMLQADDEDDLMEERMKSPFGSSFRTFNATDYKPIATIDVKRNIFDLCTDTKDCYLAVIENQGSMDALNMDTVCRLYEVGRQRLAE
T2 sequence (Q16531 whole entry, chain 2 of 2, the tested form may be a part): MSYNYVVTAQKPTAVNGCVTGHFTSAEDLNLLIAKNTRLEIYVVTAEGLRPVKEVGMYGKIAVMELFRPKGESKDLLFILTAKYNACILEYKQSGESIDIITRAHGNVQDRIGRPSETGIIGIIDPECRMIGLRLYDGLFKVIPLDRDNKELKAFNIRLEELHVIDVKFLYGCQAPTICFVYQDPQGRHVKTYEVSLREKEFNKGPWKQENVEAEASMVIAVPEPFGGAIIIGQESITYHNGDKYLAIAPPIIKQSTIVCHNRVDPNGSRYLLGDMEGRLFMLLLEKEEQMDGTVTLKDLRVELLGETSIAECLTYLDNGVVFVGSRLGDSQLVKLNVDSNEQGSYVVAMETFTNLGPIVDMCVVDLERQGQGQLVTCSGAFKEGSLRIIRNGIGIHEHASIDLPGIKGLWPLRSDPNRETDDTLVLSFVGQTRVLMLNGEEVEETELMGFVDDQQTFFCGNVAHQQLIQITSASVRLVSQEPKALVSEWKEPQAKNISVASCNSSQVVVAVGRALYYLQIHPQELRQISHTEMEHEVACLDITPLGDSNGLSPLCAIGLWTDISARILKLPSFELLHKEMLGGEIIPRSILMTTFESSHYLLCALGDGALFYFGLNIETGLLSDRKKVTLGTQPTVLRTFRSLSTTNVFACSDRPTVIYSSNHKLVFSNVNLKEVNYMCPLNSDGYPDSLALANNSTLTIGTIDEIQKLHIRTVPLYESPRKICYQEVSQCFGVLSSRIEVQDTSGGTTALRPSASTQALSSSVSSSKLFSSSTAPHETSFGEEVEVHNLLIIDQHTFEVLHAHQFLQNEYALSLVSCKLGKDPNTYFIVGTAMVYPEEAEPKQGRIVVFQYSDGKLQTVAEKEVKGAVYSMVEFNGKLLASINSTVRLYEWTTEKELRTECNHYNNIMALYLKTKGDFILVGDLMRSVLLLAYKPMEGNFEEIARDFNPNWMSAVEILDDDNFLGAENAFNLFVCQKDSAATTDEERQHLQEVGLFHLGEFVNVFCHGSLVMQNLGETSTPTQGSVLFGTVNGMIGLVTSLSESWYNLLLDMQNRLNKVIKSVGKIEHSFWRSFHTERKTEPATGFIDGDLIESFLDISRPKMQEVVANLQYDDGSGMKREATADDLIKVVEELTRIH

B1: NusA–Vpr_(1–79) (domain or fragment)
chain: MEQAPEDQGPQREPYNEWTLELLEELKSEAVRHFPRIWLHNLGQHIYETYGDTWAGVEAIIRILQQLLFIHFRIGCRHS
notes: HIV-1 Vpr, residues 1-79; source: E. coli Rosetta 2 (DE3) or Rosetta 2 (DE3) pLysS, purified (HisTrap, gel filtration)
- Kd (Trx-hHR23AFL): 640 ± 408 nM
- Kd (DCAF1_(1045–1396)/DDB1): 116 ± 47 nM

B2: recombinant VprFL (from NusA–VprFL) (natural protein)
chain: MEQAPEDQGPQREPYNEWTLELLEELKSEAVRHFPRIWLHNLGQHIYETYGDTWAGVEAIIRILQQLLFIHFRIGCRHSRIGVTRQRRARNGASRS
notes: HIV-1 Vpr, full length (FL); also called VprFL WT; source: recombinant NusA–VprFL
- binding result [1]: binds
- binding result [2]: binds
- binding result [3]: binds

B3: recombinant VprFL L67A/I70A (natural protein)
chain: B2 chain with L67A, I70A
notes: HIV-1 Vpr, full length, with L67A and I70A; also called L67A/I70A double mutant; source: recombinant NusA–VprFL
- binding result [1]: binds

B4: recombinant VprFL H45A (natural protein)
chain: B2 chain with H45A
notes: HIV-1 Vpr, full length, with H45A; source: recombinant NusA–VprFL
- binding result [1]: binds

B5: recombinant VprFL Y50S (natural protein)
chain: B2 chain with Y50S
notes: HIV-1 Vpr, full length, with Y50S; source: recombinant NusA–VprFL
- binding result [1]: binds

B6: recombinant VprFL R73A (natural protein)
chain: B2 chain with R73A
notes: HIV-1 Vpr, full length, with R73A; source: recombinant NusA–VprFL
- binding result [1]: binds
